Source: patent US8591913B2, “Methods of decreasing adipose tissue” (Toru Miyazaki, priority 2009, dated 2013)

Key:
[1] = system: adipocytes in the adipose tissue of AIM-/- mice; assay: Endocytosis of injected rAIM into adipose tissue of AIM-/- mice (histology); type: in vivo, mouse; conditions: 3 hours
Method: Further, mouse rAIM was directly injected into epididymal adipose tissue in obese AIM^−/− mice, and the adipose tissue was histologically analyzed. That is, total 100 μg of rAIM was directly injected into several sites of the epididymal adipose tissue. At 3 hours after the injection, tissue sections from the epididymal adipose tissue were made, and the tissue sections were stained with the anti-AIM antibody and the anti-macrophage antibody.
In addition, rAIM was systemically administered by intravenous injection to AIM^−/− mice, and subsequently adipose tissues were histologically analyzed. That is, 200 μg of rAIM was systemically administered by the intravenous injection to the AIM^−/− mice. At 3 hours after the injection, tissue sections were made from the epididymal adipose tissue, and the tissue sections were stained with the anti-AIM antibody and the anti-macrophage antibody.

endogenous FAS = biological target: T1, endogenous FAS (Mus musculus, UniProt P19096); assay: Co-precipitation of endocytosed HA-tagged rAIM with endogenous FAS from adipose tissue lysates; type: binding; conditions: HA-tagged rAIM injected into AIM-/- mice, adipose tissue lysate, anti-HA antibody, Western blotting for FAS
T1 construct: from tissue; host or cells: epididymal adipose tissue of obese AIM-/- mice
T1 sequence (P19096 whole entry): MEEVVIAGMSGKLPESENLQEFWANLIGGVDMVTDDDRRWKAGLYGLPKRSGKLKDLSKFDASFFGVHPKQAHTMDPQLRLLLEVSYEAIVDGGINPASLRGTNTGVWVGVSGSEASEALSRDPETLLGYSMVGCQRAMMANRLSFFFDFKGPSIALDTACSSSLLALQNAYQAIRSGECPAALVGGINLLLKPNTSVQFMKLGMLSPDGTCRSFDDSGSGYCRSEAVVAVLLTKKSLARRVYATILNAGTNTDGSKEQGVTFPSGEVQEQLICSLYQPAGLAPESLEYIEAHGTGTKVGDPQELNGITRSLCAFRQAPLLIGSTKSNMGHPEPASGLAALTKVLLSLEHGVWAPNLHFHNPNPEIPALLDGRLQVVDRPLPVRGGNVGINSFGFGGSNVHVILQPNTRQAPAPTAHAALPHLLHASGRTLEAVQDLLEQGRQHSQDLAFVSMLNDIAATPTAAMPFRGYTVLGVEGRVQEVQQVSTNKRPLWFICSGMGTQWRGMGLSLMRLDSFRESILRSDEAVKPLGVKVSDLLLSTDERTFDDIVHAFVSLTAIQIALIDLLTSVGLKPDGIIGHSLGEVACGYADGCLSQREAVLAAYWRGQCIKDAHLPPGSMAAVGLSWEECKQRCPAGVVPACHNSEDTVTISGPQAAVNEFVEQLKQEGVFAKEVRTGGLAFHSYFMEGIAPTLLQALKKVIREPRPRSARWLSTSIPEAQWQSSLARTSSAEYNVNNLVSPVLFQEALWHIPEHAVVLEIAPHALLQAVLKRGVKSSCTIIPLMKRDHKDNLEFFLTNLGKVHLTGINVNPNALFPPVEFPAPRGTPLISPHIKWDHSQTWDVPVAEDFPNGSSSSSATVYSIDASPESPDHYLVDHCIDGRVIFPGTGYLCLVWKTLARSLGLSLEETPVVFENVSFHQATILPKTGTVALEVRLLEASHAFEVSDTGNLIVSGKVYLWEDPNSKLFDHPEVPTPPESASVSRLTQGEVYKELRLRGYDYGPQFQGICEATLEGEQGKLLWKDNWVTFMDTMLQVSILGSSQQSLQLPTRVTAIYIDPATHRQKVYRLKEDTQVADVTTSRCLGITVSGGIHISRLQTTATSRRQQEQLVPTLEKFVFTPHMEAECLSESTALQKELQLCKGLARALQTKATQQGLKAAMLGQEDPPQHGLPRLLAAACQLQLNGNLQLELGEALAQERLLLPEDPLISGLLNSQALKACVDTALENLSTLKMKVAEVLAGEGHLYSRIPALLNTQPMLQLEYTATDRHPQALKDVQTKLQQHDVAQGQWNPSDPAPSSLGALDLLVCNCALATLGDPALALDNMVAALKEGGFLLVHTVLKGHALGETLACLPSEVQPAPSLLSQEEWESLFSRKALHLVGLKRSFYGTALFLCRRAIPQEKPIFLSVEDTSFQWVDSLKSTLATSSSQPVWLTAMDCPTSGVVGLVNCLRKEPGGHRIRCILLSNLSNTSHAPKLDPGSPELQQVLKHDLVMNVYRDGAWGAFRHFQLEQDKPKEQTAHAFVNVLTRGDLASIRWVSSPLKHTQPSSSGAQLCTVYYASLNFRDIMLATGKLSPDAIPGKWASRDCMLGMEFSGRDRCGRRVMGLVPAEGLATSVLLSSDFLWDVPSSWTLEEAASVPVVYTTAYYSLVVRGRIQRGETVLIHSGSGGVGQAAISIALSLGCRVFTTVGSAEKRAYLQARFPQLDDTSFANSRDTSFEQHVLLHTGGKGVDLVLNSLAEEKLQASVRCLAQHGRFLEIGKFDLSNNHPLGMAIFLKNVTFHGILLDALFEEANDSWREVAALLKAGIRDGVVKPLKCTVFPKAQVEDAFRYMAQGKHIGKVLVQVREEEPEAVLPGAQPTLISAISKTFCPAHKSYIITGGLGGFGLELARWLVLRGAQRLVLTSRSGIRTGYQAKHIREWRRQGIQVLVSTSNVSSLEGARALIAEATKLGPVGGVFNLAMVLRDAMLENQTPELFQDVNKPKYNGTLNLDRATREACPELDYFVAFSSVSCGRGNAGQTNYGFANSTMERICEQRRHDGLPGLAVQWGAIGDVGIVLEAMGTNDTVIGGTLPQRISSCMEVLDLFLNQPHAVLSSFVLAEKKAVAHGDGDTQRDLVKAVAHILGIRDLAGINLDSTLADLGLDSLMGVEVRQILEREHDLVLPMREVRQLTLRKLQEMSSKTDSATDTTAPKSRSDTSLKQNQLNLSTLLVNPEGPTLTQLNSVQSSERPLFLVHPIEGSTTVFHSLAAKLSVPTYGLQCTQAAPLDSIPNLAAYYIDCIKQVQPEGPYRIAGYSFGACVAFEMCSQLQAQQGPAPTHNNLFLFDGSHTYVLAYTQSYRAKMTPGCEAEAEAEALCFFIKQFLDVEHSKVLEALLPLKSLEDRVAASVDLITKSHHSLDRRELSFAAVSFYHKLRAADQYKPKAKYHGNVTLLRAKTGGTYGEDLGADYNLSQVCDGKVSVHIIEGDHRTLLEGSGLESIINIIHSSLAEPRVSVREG
Method: Further, the endocytosed rAIM was precipitated using lysates derived from those adipose tissues to examine whether endogenous FAS was co-precipitated or not. That is, the presence of FAS in the precipitate was analyzed by Western blotting using HA-tagged rAIM and an anti-HA antibody.
It was confirmed that AIM was bound to FAS both in vivo and in vitro. That is, mouse rAIM tagged with HA in a total amount of 100 μg was directly injected in several sites in the epididymal adipose tissue in the obese AIM^−/− mouse. At 3 hours after the injection, the epididymal adipose tissues were collected. Then, endocytosed rAIM was precipitated from a lysate of the adipose tissues using an anti-HA antibody. Then, it was analyzed by immunoblotting (WB) whether FAS was present in the resulting precipitate.

3T3-L1 cells = assay: Expression of genes associated with adipocyte differentiation, quantitative RT-PCR; type: cell-based; conditions: mouse AIM
Method: The cells cultured in the above-mentioned five schedules (a) to (e) in Examples 2 and 3 above were collected on the 10th day (day 12) after the initiation of the stimuli for differentiation induction, and the expression of genes associated with adipose differentiation was analyzed using quantitative RT-PCR (QPCR).

FAS = biological target: T2, FAS (Mus musculus, UniProt P19096); assay: FAS enzyme activity in lysates of loaded 3T3-L1 cells (malonyl-CoA consumption); type: cell-based; conditions: mouse AIM 5 μg/mL
T2 construct: cell lysates were prepared, and the enzyme activity of FAS was measured; endogenous in cells; host or cells: 3T3-L1 cells (differentiating or differentiated)
T2 sequence (P19096 whole entry): as above
Method: Whether AIM affected an enzyme activity of FAS or not was examined.
In addition, as a schedule (f) similar to the above-mentioned schedule (e), AIM was loaded for 4 days (day 8 to day 12) after the 3T3-L1 cells differentiated, subsequently the cells were collected on the 10th day (day 12) after the initiation of the differentiation induction, cell lysates were prepared, and the enzyme activity of FAS was measured. The enzyme activity of FAS was measured based on a consumption amount of malonyl-CoA.
In addition, using a FAS inhibitor (C75) in place of AIM, the FAS inhibitor at a concentration of 25 μM was loaded according to the schedules (d) and (f), and as was the case with the above-mentioned AIM, the cells were collected on the 2nd day (day 4: schedule (d)) and 10th day (day 12: schedule (f)) after the initiation of the differentiation induction, and the enzyme activity of FAS was measured.
Further, for comparison, the cells cultured without loading AIM in the above-mentioned schedule (a) were also collected at times of the 2nd day (day 4) and 10th day (day 12) after the initiation of the differentiation induction, and the enzyme activity of FAS was measured.
FIG. 11B and FIG. 11C illustrate the results of measuring the FAS enzyme activity (Fatty acid synthase activity) (nmol NADPH/min/mg protein). FIG. 11B illustrates the results obtained on the 2nd day (day 4) after the initiation of the differentiation induction in the case of loading no AIM according to the schedule (a) (None), the case of loading AIM according to the schedule (d) (AIM (5 μg/mL)), and the case of loading the FAS inhibitor according to the schedule (d) (C75 (25 μM)). FIG. 11C illustrates the results obtained on the 10th day (day 12) after the initiation of the differentiation induction in the case of loading no AIM according to the schedule (a) (None), the case of loading AIM according to the schedule (f) (AIM (5 μg/mL)), and the case of loading the FAS inhibitor according to the schedule (f) (C75 (25 μM)).

obese AIM-/- mice = assay: Intravenous administration of AIM to obese AIM-/- mice; type: in vivo, mouse
Method: Obese AIM^−/− mice were produced by giving HFD for 20 weeks or more. Meanwhile, a purified recombinant mouse AIM protein was prepared, and an AIM solution in which the AIM protein had been dissolved at a concentration of 0.2 mg/mL in phosphate buffered saline (PBS, pH 7.4) was prepared as an injection. Then, the AIM injection was administered to the mice from the tail vein twice a week for 4 weeks.
A dosage was 1 μg per 1 g of the body weight of the mouse. The dosage was determined based on the AIM concentration in the culture medium in the above-mentioned in vitro experiments, by considering that the AIM concentration in the blood of the mouse was a similar level to the AIM concentration in the culture medium.
In addition, as a control, the same amount of bovine serum albumin (BSA) was administered via the tail vein in the same schedule to the obese AIM^−/− mice produced by giving HFD for 20 weeks or more. Then, the body weight of the mice after being administered was measured, and the visceral white adipose tissue was collected and its weight was measured.
FIG. 22A and FIG. 22B show the results of observing adipose tissue sections stained with hematoxylin and eosin (HE) under a microscope.

3T3-L1 preadipocytes = assay: Differentiation of 3T3-L1 preadipocytes into mature adipocytes, oil-red-o staining; type: cell-based, mouse; conditions: AIM concentration reduced to 1 μg/mL and 0.1 μg/mL; data not shown
AIM-/- macrophages = AIM-/- macrophages loaded with recombinant AIM molecules; Document 1; cited from earlier work
[2] = schedule (d): day 2 to day 4, cells collected day 12
[3] = AIM iv versus albumin, HE-stained sections
[4] = mouse AIM 1 μg per 1 g body weight, tail vein, twice a week for 4 weeks, versus BSA

B1: mouse AIM: protein consisting of the amino acid sequence shown in SEQ ID NO: 5; recombinant, purified from HEK293T culture supernatant (protein)
chain: MAPLFNLMLAILSIFVGSCFSESPTKVQLVGGAHRCEGRVEVEHNGQWGTVCDDGWDRRDVAVVCRELNCGAVIQTPRGASYQPPASEQRVLIQGVDCNGTEDTLAQCELNYYVFDCSHEEDAGAQCENPDSDLLFIPEDVRLVDGPGHCQGRVEVLHQSQWSTVCKAGWNLQVSKVVCRQLGCGRALLTYGSCNKNTQGKGPIWMGKMSCSGQEANLRSCLLSRLENNCTHGEDTWMECEDPFELKLVGGDTPCSGRLEVLHKGSWGSVCDDNWGEKEDQVVCKQLGCGKSLHPSPKTRKIYGPGAGRIWLDDVNCSGKEQSLEFCRHRLWGYHDCTHKEDVEVICTDFDV
modifications: mouse
notes: recombinant, purified from HEK293T culture supernatant
staining of macrophages in the adipose tissues with the anti-AIM antibody ([1]; 200 μg rAIM intravenous injection): also stained | signals from the endocytosed rAIM in the adipocytes in the adipose tissues ([1]; 200 μg rAIM intravenous injection, levels lower than after direct injection): detected | endocytosis of exogenous rAIM into adipocytes in the adipose tissue ([1]; total 100 μg mouse rAIM directly injected into epididymal adipose tissue of obese AIM-/- mice): endocytosed into adipocytes | co-precipitation of endocytosed rAIM and endogenous FAS (endogenous FAS): co-precipitated

B2: AIM: apoptosis inhibitor of macrophage, secretory protein with three SRCR domains; recombinant mouse and human AIM in Example 2, mouse AIM in Examples 3-16 (protein)
chain: ESPTKVQLVGGAHRCEGRVEVEHNGQWGTVCDDGWDRRDVAVVCRELNCGAVIQTPRGASYQPPASEQRVLIQGVDCNGTEDTLAQCELNYYVFDCSHEEDAGAQCENPDSDLLFIPEDVRLVDGPGHCQGRVEVLHQSQWSTVCKAGWNLQVSKVVCRQLGCGRALLTYGSCNKNTQGKGPIWMGKMSCSGQEANLRSCLLSRLENNCTHGEDTWMECEDPFELKLVGGDTPCSGRLEVLHKGSWGSVCDDNWGEKEDQVVCKQLGCGKSLHPSPKTRKIYGPGAGRIWLDDVNCSGKEQSLEFCRHRLWGYHDCTHKEDVEVICTDFDV
expression of the C/EBPα gene (3T3-L1 cells; schedule (b): day 2 to day 12): almost completely inhibited | expression of the CD36 gene (3T3-L1 cells; schedule (b): day 2 to day 12): almost completely inhibited | expression of the FAS gene (3T3-L1 cells; schedule (b): day 2 to day 12): slightly increased | expression of the Glut4 gene (3T3-L1 cells; schedule (b): day 2 to day 12): almost completely inhibited | expression of the PPARγ gene (3T3-L1 cells; schedule (b): day 2 to day 12): almost completely inhibited | gene expression patterns compared with no AIM (3T3-L1 cells; schedule (c): day -2 to day 2): not changed | expression of the FAS gene (3T3-L1 cells; schedule (d): day 2 to day 4): slightly increased | expression of the C/EBPα gene (3T3-L1 cells; [2]): almost completely inhibited | expression of the CD36 gene (3T3-L1 cells; [2]): almost completely inhibited | expression of the Glut4 gene (3T3-L1 cells; [2]): almost completely inhibited | expression of the PPARγ gene (3T3-L1 cells; [2]): almost completely inhibited | gene expression patterns compared with no AIM (3T3-L1 cells; schedule (e): day 6 to day 12): not changed | enzyme activity of FAS (FAS; schedule (d): day 2 to day 4, cells collected day 4, compared with no AIM): remarkably reduced | enzyme activity of FAS (FAS; schedule (f): day 8 to day 12, cells collected day 12, compared with no AIM): remarkably reduced | accumulation of macrophages in the adipose tissues (obese AIM-/- mice; [3]): remarkable accumulation | size of adipocytes in the adipose tissues (obese AIM-/- mice; [3]): remarkably reduced | amount of food intake (obese AIM-/- mice; administration of AIM, iv): No change | histology of adipose tissues, observed locally (in a spotty pattern) (obese AIM-/- mice; mouse AIM 1 μg per 1 g body weight, tail vein, twice a week for 4 weeks): shrinkage and lysis of adipocytes | body weight (obese AIM-/- mice; [4]): no significant difference | total weight of the adipose tissue (obese AIM-/- mice; [4]): no significant difference | lipolysis in the adipose tissues of the obese mouse (obese AIM-/- mice; systemic intravenous administration of purified AIM protein): induced lipolysis | differentiation inhibitory effect by AIM (3T3-L1 preadipocytes): reduced | resistance to the apoptosis (AIM-/- macrophages): enhanced
